For 1 substance, Kd results are on record in article PMC5690536.

The assay has as its target GST-CD11a αI-domain. Put plainly: radioligand binding.

As a reminder, the Kd is the equilibrium constant for the complex coming apart. Lower therefore signals a tighter complex. “32P-labeled pkISG15 (from UniProt P05161 1-157) (natural protein)” returned a Kd of 0.656 µM.
